Source: the DeepSol protein solubility set

experiment: soluble on expression in E. coli; label from the status in PepcDB or PDB records

**Q.** Which “soluble on expression in E. coli” value does the source give for “SATGTPESQARFGQSVKGLLTEKVTTCGTDVIALTKQVLKGSRSSELLGQAARNMVLQEDAILHSEDSLRKMAIITTHLQYQQEAIQKNVEQSSDLQDQLNHLLK” here?
**A.** Its value is “soluble”.

**Q.** With “MKAVTTSPSDPPDPFDPLDPVDPLASTKPEVDVVLPCLDEADALPWVLARIPPGWRALVVDNGSTDGSAEIARRLGATVVPETRRGFGAACHAGLTAATADIVCFCDCDGSLDPSLLVPFVREVRDGAADLVLGRRRPHGRGAWPAHARAGNLALARMLRRRTGLRLHDLGPLRAARREPLLALGLTDRRSGYPLQMVVRAADAGWRIAEHDVPYLPRTGVSKVTGTWRGTWQAVRDMSRVLAEPAQDGPPESGSLSSSQGGSSQLEHHHHHH” as the sequence, how does the “soluble on expression in E. coli” value read?
**A.** Its value is “not soluble”.

**Q.** Which “soluble on expression in E. coli” value does the source give for “MKSRFRFHLCCVCMLALAVAGCKVKRPDDVISESKMENLLYDYHLAKSMGDNLPYNENYKKTLYLDAVFKKYGTTEAVFDSSLVWYTRNTEVLSKIYEKVSKRLKAQQNEINHLIALRDNKPKMSEPGDSIDVWPWKCFIRLTGEMMNDQYAFVLPVDTNYKDRDTLVWEVRYRFLEPMLADSLRAVTMAMQVIYEKDTLNHLETITDPGVHQIRLYADTLGVMKEIKGFIYYPGVQGEKAGALLADRFALTRYHCSDSLSVAERDSINQLEALKTDSLKKVSDQKDTKISKDSLRKVDDLKDNQRISPEEMNRRRTVTPEKKPEQIEVEQHIQQEKIEQRRERQLNQRRNQQRRQSPSR” here?
**A.** The value was “not soluble”.

**Q.** For “LALLYEVTCLNKPGLVDPVDAGAHQDMDVFTFLESSVVLTPYFETFVQAGTELRHLPIEATFRTIRQVGLEAERAMFEATEGINTHKGAIFSLGIFLAVCGRLMIWETPCTLQLFQQTLQTMTQDLLADFENLATNELEKLTWGERLFVQHGLTGIRGEAQQGYPAVFEQGVPYYQKHQGTQQQKLIDTLLYLSLYVEDTNLIKRSQNVQIFEVYQPLIQEYFALGGTQTLRGTLCLERLNHLFKEKNWSIGGSADALILVV”, which “soluble on expression in E. coli” value is on record?
**A.** Its value is “not soluble”.

**Q.** With “MGSDKIHHHHHHMRNMNIEEIRNSFLSGRPAVLIDEERENEADLVFPAEIATPKVVNFMLSAKGLLCLALDMEEGIKRGFFKLPNNGGETNFLIPVDYKDVFTGITAEERALTARKVAEGLGIENFRYPGHLPLLGGLGLNKRKGHTEASLELVEMAGFKRYALIIEILDDKGYSHNLDYAFHFAKEHDLPLIRIREIWKEFVRRKQLIHVYSKAKLPTKYGDFEIYSFKNDLDFKDHVALVKKPFKGTPLVRVHSKCLTGDTLGSLKCDCGSQLENALRTISQEGGVLIYLDQEGRGIGLREKIRAYEFQDRGLDTVEANKALGFAPDERTYEVAFQILRALGIEKIKLLTNNPSKVKALRELGIEIEDVIPLPGEINRYNFFYLKTKVEKLGHKIPGVEV” as the sequence, how does the “soluble on expression in E. coli” value read?
**A.** The value was “not soluble”.

**Q.** For “SGCFGCFSPEVDDDLKPSKPNYHSSDESSGADARRKVAPLATDGGNGYAHSFTFKDLSVATGYFNEANFIGEGGFGKVYKGKINGQMVAVKQLTRDGVQGRNEFLVEVLMLTVLNHPHLVSLVGFCAQGDERLLVYEYMPFGSLESHLFDVPLGKQPLDWNTRMRIAVGVAEGLSYLHNVADPPIIYRDMKAANILLDEDYRPKLSDFGLAKVGPVGDRTHVSTRVMGTYGYCAPDYVVSGKLTMKSDIYSFGVLLLELITGRRIYDASRPKPEQSLLTWSRPFLHDKRKFYRLADPALHGCYPTSALNQLVVISIMCLQDQPHVRPIISDVVIGLNHVASQPYVPERSSVSLSSPARCGSPQYAGTPSRRRGGRRVAQYA”, which “soluble on expression in E. coli” value is on record?
**A.** Its value is “soluble”.

**Q.** With “MNNRSAVRILRLPAVIQKTGMARATIYDWLNPKSPRYDATFPKKRMLGVKSVGWIEAEIDEWLSQRCKLILEHHHHHH” as the sequence, how does the “soluble on expression in E. coli” value read?
**A.** The value was “not soluble”.

**Q.** For “MGSDKIHHHHHHMPGFNSSPASEKSSLLRQHFPLVTIPEYNSWDPDIAYIQLEQAILPLLNQGVLLTGSSLGGFWAYQFACRYRQPCLLINPCMHPELSLQRYIGKVENFYSHEQGWLTEAHLGKYAAYRVNGQPSRLTVLHEQGDELIPYMESVVNFSGKAKLILPGGGHHRFARTDLIAACIRDMLPPEDAGHQKA”, which “soluble on expression in E. coli” value is on record?
**A.** The value was “not soluble”.

**Q.** With “MSLTPVLDKIDSDVSAATDRLLELLRIPSISTDPAYKADCDAAADWLVKDLNSIGIKAEKRETPGHPMVVGHVGEENTKGPHLLFYGHYDVQPVDPLNLWNTPPFEPQLEETPNGTVIRGRGASDDKGQLMTFVEACRAWQAVHGTLPCRITFFFEGEEESGSPSLIPFLEAAKEELSADIALICDTSMVARGVPSVASQLRGMMKDEFTLIGPKIDLHSGHYGGPGLNPLREISHIIASFHDPDTGAVAVEGFYEGVPEVPADILRQWEGCGFDEKDYLSNAGYTEAHGEKKYSTLEQQWARPTLEINGLWGGYQGAGTKTVIPSEAHCKITCRLVGDMDPADLRQKIRKHVEDRLPTDCTVKWDLDLDGAPAYVIDTTRPEFEAARGALTEEWNREAVFSGMGGSIPVAGYFKSILGMDAMLIGFANEDDAIHSPNEKYDLESFHKGIRSWARVLDALSKA” as the sequence, how does the “soluble on expression in E. coli” value read?
**A.** The value was “soluble”.

**Q.** For “MAFIESWAKRTWLVPPQMQLYVDYKIKVTEILTNYTSIEEIHSYSIDESFLDITESLNFFYPDIRNRYEQMNLITLDLQREILDKLGLYVTVGMGDNPLLAKLAMDNYAKHNQNMRALIRYLEHHHHHH”, which “soluble on expression in E. coli” value is on record?
**A.** The value was “not soluble”.

**Q.** For “MAHHHHHHMKCVVCDADKAGYRCRACRSAYCSSQCYRKHRMSREEAAAQVANINAATSSFAHLCETVVAAQRPQKELDEKRQRTEAEADVFSDVSREKVAAAGAVHGSENDAPPPSTAPAVETAWKTATGASEASGPACAEPQPSARTEYAGDSDAVYILQEKHLGALAHDPRVRSALRSPSLQKLIKTIDSSRSRLDALEAAQYNNADFKGFCDAVLRVIAEVEGR”, which “soluble on expression in E. coli” value is on record?
**A.** Its value is “soluble”.

**Q.** With “MAAEDELQLPRLPELFETGRQLLDEVEVATEPAGSRIVQEKVFKGLDLLEKAAEMLSQLDLFSRNEDLEEIASTDLKYLLVPAFQGALTMKQVNPSKRLDHLQRAREHFINYLTQCHCYHVAEFELPKTMNNSAENHTANSSMAYPSLVAMASQRQAKIQRYKQKKELEHRLSAMKSAVESGQADDERVREYYLLHLQRWIDISLEEIESIDQEIKILRERDSSREASTSNSSRQERPPVKPFILTRNMAQAKVFGAGYPSLPTMTVSDWYEQHRKYGALPDQGIAKAAPEEFRKAAQQQEEQEEKEEEDDEQTLHRAREWDDWKDTHPRGYGNRQNMGAAAAAALEHHHHHH” as the sequence, how does the “soluble on expression in E. coli” value read?
**A.** Its value is “not soluble”.

**Q.** Which “soluble on expression in E. coli” value does the source give for “KTDPRSMNSRVFIGNLNTLVVKKSDVEAIFSKYGKIVGCSVHKGFAFVQYVNERNARAAVAGEDGRMIAGQVLDINLAAEPKVNR” here?
**A.** Its value is “soluble”.

**Q.** With “MRVKGPSSRRKKKKILKLAKGYRGQRSRSYRRAKEAVMRALYYQYRDRKLRKREFRRLWIARINAAVRAYGLNYSTFINGLKKAGIELDRKILADMAVRDPQAFEQVVNKVKEALQVQ” as the sequence, how does the “soluble on expression in E. coli” value read?
**A.** The value was “soluble”.

**Q.** With “MSLSITHQPANLTLAQIQQMIGGVMLLSQHSPLHRRYVVAEWLQRILPAFELNQFCYYEDEHGRPIAFCNWAFVSEQIRDELLSGVREISPSDWRSGQQIYIPEMIAPFGHGREVVNDLRRRVFLPWQGQKVCTVRGKVDAQNDRCIRKVQWFSIEGHHHHHH” as the sequence, how does the “soluble on expression in E. coli” value read?
**A.** Its value is “soluble”.

**Q.** Which “soluble on expression in E. coli” value does the source give for “MGSDKIHHHHHHMPGGGNGILYSNLAAVKEMKMNNLRVVIITGLSGSGKSTALRALEDIGFYCVDNMPVVLLPQFLEIQSDKSKDISQVAMVMDLREKSFIETYKGIFEQIKARGYKIEIVFLYATDDALLHRFSETRRVHPLSSVSIMEGIRLEREQLRALEEMADKVIDTTSCNVHQLKDIVQRHFLPSSTARRLFIHLISFGYRYGLPADADLVLDVRFLPNPYWVESLKSFNGHHQDVRRYVLSAEASSIFLQKLFDLMEFLIPLYEKEGKPRITIAVGCTGGKHRSVVMANELWSYFSGRDYPVNVNHRDVGKS” here?
**A.** The value was “not soluble”.

**Q.** With “MEHQTTRNVILITEGSLQSSLLKDVLETKLGINVLLITPENLASPFVRNQSISAIVLDYSVITDEVFARYMEFKTPNLTGTLEILINCDKSISTDELFVWGALAGIFYTSDDIQTLQTGIDKVLQGDMWFSRKFAQQYITHLRRHSRPINKNVPA” as the sequence, how does the “soluble on expression in E. coli” value read?
**A.** Its value is “not soluble”.

**Q.** For “MSLGELLFNRSFENTKPVSESNSWYTCYRGDVKEAKWWHSGYEEPKWYLLADGRKEEKLPLIFNNYWPSAHGKYFLQIDNRKKQIPTLLVQERIYIEKGKGYTVSGLFSSGGYLSEEKYSKESVPVTIAIYKEGDFHTPLSKTELAVNTNQFILYSSSLDATEYEGWCTYTIEVPAGGCVGIDLLSLMADDVIKGWKRESVERIKNELRPRTMRMPGGCFTSLYDWRSGIGPREERPVSYDTWWGCELLNDVGTFELVDLCEAVGAEPFFCVPVMFNNEYSAADWVDFCNNPTNAQRIAYGRTKPLNVKYWELENEPYRRFDAVTYANRCVDFAKAMKAKDPSIKIAVGNYWLFNKKFKEMLEIVGPYVDLITNRGGTPEEMRADIVILDAYNKAHGTDIKLCHTEFRAPVTRNEGNTDGLNQKDTGGEETLFNASIRWGFAMNMVEQYIAYQNMGGSFFTANYTNLSDGWGECLINTPKEGTYLNAPGVAFALLNSLDIAYPQIIEQEKENQDIVIQAAWNKRRDKLTLVVLNFSQNTQPCKIDFSQIKKSFRVRKGMKIAPQSDLSFNTLQHPEEVKVEEGHHHHHH”, which “soluble on expression in E. coli” value is on record?
**A.** The value was “soluble”.

**Q.** Which “soluble on expression in E. coli” value does the source give for “MSLRDEQEIYNLVLNIANQDKRIEAVLLNGSRANPNVPKDDFQDYDIVFVTNFIEDIISDTNYHKKFGDILIMQKPNEFRNKTEYNCFAYLMQFQDLTRIDLRLIKPEFLEDYLDDAFSKVLLDKKNKYLDYNFERSSLYETKQLSEDEINKILNEIYWVSTYVVKGIARNDIIYSEFMISNPIKNAFIKLLKQKILIEKELDSLSFGKLDKDILQYITDKDQLLKIFSNKSLKDIEANLRFLLDETNQMAKYISINRKLNLNQGEYQSAMKFMNIFLSNSYQNFNEGHHHHHH” here?
**A.** Its value is “soluble”.

**Q.** Which “soluble on expression in E. coli” value does the source give for “MGSDKIHHHHHHMKNANHRFFLRERLMKLKTTLFGNVYQFKDVKEVLAKANELRSGDVLAGVAAASSQERVAAKQVLSEMTVADIRNNPVIAYEDDCVTRLIQDDVNETAYNQIKNWSISELREYVLSDETSVDDIAFTRKGLTSEVVAAVAKICSNADLIYGAKKMPVIKKANTTIGIPGTFSARLQPNDTRDDVQSIAAQIYEGLSFGVGDAVIGVNPVTDDVENLSRVLDTIYGVIDKFNIPTQGCVLAHVTTQIEAIRRGAPGGLIFQSICGSEKGLKEFGVELAMLDEARAVGAEFNRIAGENCLYFETGQGSALSAGANFGADQVTMEARNYGLARHYDPFIVNTVVGFIGPEYLYNDRQIIRAGLEDHFMGKLSGISMGCDCCYTNHADADQNLNENLMILLATAGCNYIMGMPLGDDIMLNYQTTAFHDTATVRQLLNLRPSPEFERWLESMGIMANGRLTKRAGDPSLFF” here?
**A.** Its value is “not soluble”.

**Q.** For “MREWKSQDAWKQHSLRLCFGVWPGTEFLHRPRAVHRRSGVVCSQMQTEDSHPETPQVPKESLQEEKDSSPATDASFIQSQDGKTVFLDRRTERRIQRGFVLTERGPRSIWKPAGTSSQRNERVPRRAAARGGAGPPDTTPQLATVRVLVLGANHVAQRLAELLSSHSRVCGCYFVSETTDEAAIESMKKYAYALPLRSALNDDEVVRVAEWVLADYVFLVPTGETHDDGVSLKDKERLERTLAQNRVTFMDENLTGLLLENPSLIDALFRARDSLEA”, which “soluble on expression in E. coli” value is on record?
**A.** Its value is “not soluble”.

**Q.** With “GLNMYVAGKATLNYLFERYMDTKYNLRENTKVNYKYMYDNYVRNTIGKRLIADIKYSDIVYFYKSLITEKGLELNTVDTIHTVIHPVFSMAVRDDVIRKNPASGVLADIKKESGKNKGIRHALTIEQQRVFMKYMIEEEQFNHWIPIFTILLGTGCRVGEFIGLRWEDVDFKQKVISINHSIAYVCYGKEDGRKSHYAISLPKTEAGIRYIPMTDEVYDVFKAEYYRQQENGFSQFSIEGMSGFIFTNRCGRIYNQQTLNKGLKRISENYNQKELIDA” as the sequence, how does the “soluble on expression in E. coli” value read?
**A.** Its value is “not soluble”.
